Data taken from the supplement of paper PMC7125110.
± gives the standard error. Variants at the floor of the assay were thinned out.

B1: glmS ribozyme (parent)
chain: AUAAAAGCGCCAGAACUACAGAAAUGUAGUUGACGAGGAGGAGGUUUAUCGAAUUUUCGGCGGAUGCCUCCAAA

Assays:
Details in all cases: with glucosamine-6-phosphate
glucosamine-6-phosphate [1] = variants of: B1; experiment: self-cleavage kobs at 40 uM GlcN6P; higher = faster cleavage; RNA array
Summary of the method: (§1)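 kcat and KM were obtained from weighted Michaelis–Menten fits across concentrations of kobs values. Those came from one- or two-exponential decay fits to per-tile medians normalised to baseline and to non-cleaving reference variants. The variants were barcoded ribozymes transcribed in situ by E. coli RNA polymerase on sequenced MiSeq chips and tracked through a hybridised Cy3 probe at 37 °C, with 40 μM to 10 mM glucosamine-6-phosphate in HEPES/KCl/Mg(OAc)2 buffer flowed in.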

glucosamine-6-phosphate [2] = variants of: B1; experiment: self-cleavage kobs at 160 uM GlcN6P; higher = faster cleavage; RNA array
Summary of the method: as §1

glucosamine-6-phosphate [3] = variants of: B1; experiment: self-cleavage kobs at 640 uM GlcN6P; higher = faster cleavage; RNA array
Summary of the method: as §1

glucosamine-6-phosphate [4] = variants of: B1; experiment: self-cleavage kobs at 2500 uM GlcN6P; higher = faster cleavage; RNA array
Summary of the method: as §1

glucosamine-6-phosphate [5] = variants of: B1; experiment: self-cleavage kobs at 10000 uM GlcN6P; higher = faster cleavage; RNA array
Summary of the method: as §1

Variant	self-cleavage kobs at 40 uM GlcN6P (glucosamine-6-phosphate [1])	self-cleavage kobs at 160 uM GlcN6P (glucosamine-6-phosphate [2])	self-cleavage kobs at 640 uM GlcN6P (glucosamine-6-phosphate [3])	self-cleavage kobs at 2500 uM GlcN6P (glucosamine-6-phosphate [4])	self-cleavage kobs at 10000 uM GlcN6P (glucosamine-6-phosphate [5])
G35A U69A	< 1e-05 s⁻¹	< 1e-05 s⁻¹	< 1e-05 s⁻¹	< 1e-05 s⁻¹	
A33C C68A	< 1e-05 s⁻¹		< 1e-05 s⁻¹	< 1e-05 s⁻¹	< 1e-05 s⁻¹
A33U G40A G62C	< 1e-05 s⁻¹				
C34A A53C	< 1e-05 s⁻¹		< 1e-05 s⁻¹	< 1e-05 s⁻¹	< 1e-05 s⁻¹
A33G G40C C70U	< 1e-05 s⁻¹				< 1e-05 s⁻¹
C34U G40A	< 1e-05 s⁻¹			< 1e-05 s⁻¹	< 1e-05 s⁻¹
C34A G37U G44U	< 1e-05 s⁻¹				
G35A A64G C70G	< 1e-05 s⁻¹				< 1e-05 s⁻¹
G35C A64U	< 1e-05 s⁻¹	< 1e-05 s⁻¹	< 1e-05 s⁻¹	< 1e-05 s⁻¹	< 1e-05 s⁻¹
A33C G63U C67U	< 1e-05 s⁻¹				
C34A U56A	< 1e-05 s⁻¹	< 1e-05 s⁻¹	< 1e-05 s⁻¹	< 1e-05 s⁻¹	
A33U G44U A52U	< 1e-05 s⁻¹	< 1e-05 s⁻¹	< 1e-05 s⁻¹	< 1e-05 s⁻¹	
A33C C58A	< 1e-05 s⁻¹		< 1e-05 s⁻¹		
A36C U47C	< 1e-05 s⁻¹		< 1e-05 s⁻¹	< 1e-05 s⁻¹	
C34G G40C	< 1e-05 s⁻¹		< 1e-05 s⁻¹		< 1e-05 s⁻¹
A33U G59C	< 1e-05 s⁻¹		< 1e-05 s⁻¹		< 1e-05 s⁻¹
A33C G43A G44A	< 1e-05 s⁻¹				< 1e-05 s⁻¹
C34U C61A C67G	0.00044 ± 0.00014 s⁻¹		0.000318 ± 0.00013 s⁻¹		
A36C A39G G66A	< 1e-05 s⁻¹				< 1e-05 s⁻¹
A33C G51A G60C	< 1e-05 s⁻¹		< 1e-05 s⁻¹		
G35C U54A	< 1e-05 s⁻¹		< 1e-05 s⁻¹	< 1e-05 s⁻¹	< 1e-05 s⁻¹
G35C C68A C71U	< 1e-05 s⁻¹		< 1e-05 s⁻¹	< 1e-05 s⁻¹	< 1e-05 s⁻¹
G35U G40U	< 1e-05 s⁻¹	< 1e-05 s⁻¹	< 1e-05 s⁻¹	< 1e-05 s⁻¹	< 1e-05 s⁻¹
